Laboratory results taken from patent publication US20230212305A1, “ANTI-ABCG2 ANTIBODIES AND USES THEREOF” (Kenjockety Biotechnology, Inc., priority 2020, published 2023).
Positions count from the first letter of the chain named.

T1: ABCG2 (Homo sapiens, UniProt Q9UNQ0)
T1 construct: expressed in transfected cells
T1 sequence (Q9UNQ0 1-655): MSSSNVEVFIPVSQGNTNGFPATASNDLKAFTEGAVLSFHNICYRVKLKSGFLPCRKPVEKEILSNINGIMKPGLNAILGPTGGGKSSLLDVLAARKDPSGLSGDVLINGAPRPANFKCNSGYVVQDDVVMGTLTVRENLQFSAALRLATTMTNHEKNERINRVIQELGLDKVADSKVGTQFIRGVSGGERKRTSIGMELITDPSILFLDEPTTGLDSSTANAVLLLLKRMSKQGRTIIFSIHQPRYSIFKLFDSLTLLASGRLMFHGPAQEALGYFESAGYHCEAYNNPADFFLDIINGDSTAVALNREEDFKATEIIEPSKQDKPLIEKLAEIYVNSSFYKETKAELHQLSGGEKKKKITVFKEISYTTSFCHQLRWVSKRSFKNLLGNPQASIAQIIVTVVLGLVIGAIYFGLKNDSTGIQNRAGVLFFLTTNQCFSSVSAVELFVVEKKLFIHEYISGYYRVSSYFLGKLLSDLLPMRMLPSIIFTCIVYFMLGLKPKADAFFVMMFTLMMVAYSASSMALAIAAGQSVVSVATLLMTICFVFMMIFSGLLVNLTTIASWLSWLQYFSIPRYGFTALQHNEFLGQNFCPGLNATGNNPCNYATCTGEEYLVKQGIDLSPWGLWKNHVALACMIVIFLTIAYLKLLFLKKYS

B1: G2.346 rat: anti-ABCG2 antibody raised in rat (antibody, V domains shown)
VH: SVQWKESGPGLVQPSQTLSLTCTVSGFSLTSNGVSWVRQPPGKGLEWIAAISSGGSTYYNSGLKSRLSISRDTSKSQVFLKMNSLQTEDTAIYFCTRAGYYGYNPIWFTYWGQGTLVTVSS
VL: DVVMTQTPPTLSATIGQSVSISCRSSQSLLHGSGNTYLNWLLQRPGQPPQILIYLVSRLESRVPKRFSGSGSGTDFTLKISGVEADDLGVYYCVQSTHAPFTFGSGTKLELK
B2: G2.348 rat: anti-ABCG2 antibody raised in rat (antibody, V domains shown)
VH: B1 VH with S1E, W4L, K5V, V12M, A50T, S56N, Y58N, G62A, A98V, T109A
VL: DVVMTQTPPTLSATIGHSVSISCRSSQSLFHSSGNTYLSWFLQRPGQPPQLLIYLVSRLESRVPNRFSGSGSGTDFTLKISVLEAEDLGVYYCVQTTHAPFTFGSGTKLEIK
B3: G2.247 mouse: anti-ABCG2 antibody raised in mouse (antibody, V domains shown)
VH: EVRLQQSGAELVKPGASVKLSCKTSGFTFSNSYISWLKQKPRQSLEWIAWIYAGTGGTNYNQKFTGKAQLTVDTSSSTAYMQLSSLTSEDSAIYYCATYGNFLYAMDNWGQGTSVTVSS
VL: DIVMTQSPASLSASVGETVTITCRASGNIHNYLAWYQQKQGKSPQLLVYNTKTLADGVPSRFSGSGSGTQYSLKINSLQPEDFGSYYCQHFWSTPWTFGGGTKLEIK
B4: G2.252 mouse: anti-ABCG2 antibody raised in mouse (antibody, V domains shown)
VH: B3 VH with R3Q, N108Y, S114T, V115L
VL: B3 VL with D1E, M4L, T51A
B5: G2.394 rat: anti-ABCG2 antibody raised in rat (antibody, V domains shown)
VH: EVQLKESGPGLVQPSQTLSLTCTVSGFSLTDYTITWVRQPPGKGLEWIAATSVGGATHYNSPLKSRLSISGDTSKSQVFLKMNSLRTEDTAMYFCVRSGYYSTYMNWGRGTMVTVSS
VL: DVVMTQTPPTFSATIGQSVSISCRSSQSLLHSSGNTFLSWLLQRPGQPPQLLIYLVSRLEFGVPNRFSGSGSGTDFTLKISGVEAEDLGVYYCVQSTHVMNTFGAGTKLEIK
B6: G2.257 mouse: anti-ABCG2 antibody raised in mouse (antibody, V domains shown)
VH: EVQLQQSGPELVKPGASLKISCKTFGYSFTGYYMHWVKQSPEKSLEWIGKIVPSTGGTTYNQKFKAKATLTVDKSSFTAYMQLKSLTTEDSAVYYCAREKVYGYDVYYFDYWGQGTTLTVSS
VL: DIQMTQTPSSLSASLGDRVTITCSTSQGVRSYLNWYQQKPDGSVKLLIYYTSSLHSGVPSRFSGSGSGTDYSLTISNLEPEDIATYYCQQYSKLPYTFGGGTKLELK
B7: G2.302 Humanized: humanized version of anti-ABCG2 antibody G2.302 (antibody, V domains shown)
VH: EIQLVQSGAEVKKPGASVKVSCKASGYTFTDYYINWVRQAPGQRLEWIGWIYPGNVNVKYNEKFKGRATLTVDTSASTGYMELSSLRSEDTAVYFCARSIGLRYFDNWGQGTLVTVSS
VL: EKVLTQSPATLSLSPGERATLSCRASSSVHYMYWHQQKPGQSPRLWIYYTSNLAPGVPARFSGSGSGNDYTLTISSLEPEDFAVYYCQQFTTSTWTFGGGTKLEIK
B8: G2.748: anti-ABCG2 monoclonal antibody (antibody, V domains shown)
VH: QVSLKESGPGMLQPSKTLSLTCSFSGFSLSTSGMVVNWIRQPSGKSLEWLAAIDWDGDKYYNPSLKHRLTVSKDTSNTQVVLKITSVDTADTATYYCARSIAPYRGWFGYWGQGTLVTVSS
VL: EIVLIQSPSSLPASLGERVTIICRASQDIGNNLNWYQQKPDGTIKPLIYFTSNFQSGVPSSFSGSRSGTDFSLTISSLEAEDFAMYYCQQDASLPWTFGGGTKLEIK
B9: G2.757: anti-ABCG2 monoclonal antibody (antibody, V domains shown)
VH: QVTLKESGPGILRPSHTLSLTCSFSGFSLTTYGICVSWIRQPSGKGLEWLANICWEDSKAYNPSLKNRLTISKDTSNNQVFLRIPSVDTADSAIYYCARVFNNYPFPYWGQGTLVTVSS
VL: TQSPPSLSASLGDKVTITCQASQNINKYVAWYQQKPGKAPRLLIRYTSTLESGTPSRFSGSGSWRDYSFSISNVESEDIADYYCLQYVNLWTFGGGTKLELK
B10: G2.640: Anti-G2 antibody raised in rats; VH SEQ ID NO:415, VL SEQ ID NO:416 (antibody, listed as Rattus norvegicus, V domains shown)
VH: EVKLEESGPGLVQPSQTLSLTCTVSGFSLTSDGVSWVRQPPGKGLEWIAAISSGGSTYYNSALKSRLSISRDTSKSQVFLKMNSLQTEDTAIYFCTRDTYYGYNQIPFVYWGQGTLVTVSS
VL: DIVIIQSPPSLSASLGDKVTISCQASQNIHRYIAWYQQKPGKAPRLLIRYTSTLESGTPSRFSGSGSGRDYSFSISNVESEDIASYYCLQYVNLWTFGGGTKLELK
B11: G2.760: anti-ABCG2 monoclonal antibody (antibody, V domains shown)
VH: EVQLVESGGGLVQPGRSMKLSCAASGFTFSKSDMAWVRQAPTKGLKWVASIRYDGGNTYYRDSVRGRFTISRDNAKSTLYLQMDSLRSEDTATYYCSTAKAAISTPSYYVLDAWGQGASVTVSS
VL: DIGMTQSPTSMSKSVGDRVTMNCKASQNVGSNVDWFQQKTGQSPKLLIYKSSNRYTGVPARFTGSGSGTDFTFTISNMQAEDLAVYYCMQSNSYPPTFGGGTKLELK
B12: G2.636.hu47: humanized variant of the anti-ABCG2 antibody G2.636 (antibody, V domains shown)
VH: EVQLVESGGGLVQPGGSLRLSCAASGFTFSRFYMAWVRQAPGKGLEWVAHISHGGDTTYYRDSVKGRFTISRDNSKNTLYLQMNSLRAEDTAVYYCTTSAAPWNYVMDGWGQGATVTVSS
VL: DIQLTQSPSSLSASVGDRVTLTCKGSQNINNFLAWYQQKPGKAPKLLIYKTNSLHTGIPSRFSGSGSGTDYTLTISSLQPEDFATYYCYQYNNGYTFGQGTKLEIK

Biological target: T1, ABCG2
Assay: Flow cytometry binding to 293T cells overexpressing human ABCG2 (293T_ABCG2_OX)
Parameters: key to Binding by FACS: binding=“+”; non-significant binding=“−”
Settings: 293T_ABCG2_OX cells
Method: (§1) Cell Binding Assays. Antibody binding to cells was evaluated by flow cytometry. 293T cells stably transfected to express human or cynomolgus ABCG2 (293T_ABCG2_OX) were washed once in flow cytometry buffer (PBS+2% FBS+0.02% sodium azide), resuspended at 2×10^6 cells/mL in flow cytometry buffer, and dispensed into 96-well microtiter plates at 0.1 mL/well. Recombinant antibodies were added to cells at 5 ug/mL for initial binding confirmation, or serially diluted from 100 ug/mL in flow cytometry buffer. After incubating cells on ice for 30 min, cells were washed twice with flow cytometry buffer. Bound antibody was detected with PE-labeled F(ab′)2 fragment goat anti-human IgG (Jackson ImmunoResearch) and evaluated on an Attune NxT flow cytometer. EC50 is calculated to be the concentration of antibody that gives half maximal response.

Molecule	Binding by FACS
B1	+
B2	+
B3	+
B4	+
B5	+
B6	+
B7	+

Same assay, conditions: in words; FIGS. 7-11, 21

Molecule	binding to 293T cells overexpressing human ABCG2
B8	good binding affinity
B9	good binding affinity
B10	did not show significant binding
B11	good binding affinity

Tested on: cynomolgus ABCG2
Assay: Flow cytometry binding to 293T cells overexpressing cynomolgus ABCG2
Parameters: key to Cynomolgus ABCG2 binding: binding=“+”; non-significant binding=“−”
Settings: not given
Method: as §1

Sequence of cynomolgus ABCG2 (as listed by the source): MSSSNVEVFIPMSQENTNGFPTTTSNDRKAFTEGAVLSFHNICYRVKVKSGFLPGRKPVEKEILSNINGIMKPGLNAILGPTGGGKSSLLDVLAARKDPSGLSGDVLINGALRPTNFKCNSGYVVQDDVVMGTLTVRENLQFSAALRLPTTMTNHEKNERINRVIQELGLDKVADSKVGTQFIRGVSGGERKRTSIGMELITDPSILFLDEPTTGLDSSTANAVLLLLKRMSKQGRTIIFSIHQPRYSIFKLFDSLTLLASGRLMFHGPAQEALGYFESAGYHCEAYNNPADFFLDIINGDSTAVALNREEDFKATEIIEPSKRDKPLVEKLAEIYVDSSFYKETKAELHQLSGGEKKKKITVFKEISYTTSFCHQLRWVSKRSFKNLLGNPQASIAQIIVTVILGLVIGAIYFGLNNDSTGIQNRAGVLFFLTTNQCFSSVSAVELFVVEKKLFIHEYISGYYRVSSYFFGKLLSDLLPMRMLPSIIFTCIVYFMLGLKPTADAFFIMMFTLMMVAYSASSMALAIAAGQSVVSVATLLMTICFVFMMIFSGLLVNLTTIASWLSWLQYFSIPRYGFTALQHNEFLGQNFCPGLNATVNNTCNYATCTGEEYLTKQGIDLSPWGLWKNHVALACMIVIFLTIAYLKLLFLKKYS

Molecule	Cynomolgus ABCG2 binding
B1	+
B2	+
B3	−
B4	−
B5	+
B6	+
B7	+

Same assay, conditions: in words; FIGS. 7-11, 21

Molecule	binding to 293T cells overexpressing cynomolgus ABCG2
B8	good binding affinity
B9	good binding affinity
B10	did not show significant binding
B11	good binding affinity

Biological target: T1, ABCG2
Assay: not given
Format: cell-based
Settings: not given
Method: 293T_ABCG2_OX cells were washed several times and aliquoted into 96-well plates as 50 μl aliquots/well at a cell density of 2×10e6 cells per ml in phenol red-free DMEM. Cells were mixed with 50 μl antibodies or the small molecule inhibitors of ABCG2:-fumitremorgin C (FTC), or its tetracyclic analogue K0143, with a final concentration of 1 μM. Cells were then incubated in the presence of 2.5 μM Mitoxantrone 1 h at 37° C. The cells were subsequently washed twice and finally resuspended in […] PBS. Mitoxantrone fluorescence was measured using excitation at 635 nm and emission at 647 nm. Protocols was measuring efflux blockade are found in Szabo E, et al., PLoS One. 2018 Jan. 17; 13(1):e0190629; Deeken J F, et al., Mol Pharmacol. 2009 November; 76(5):946-56).

Molecule	Block Efflux	efflux inhibition activities and binding to human and cynomolgus ABCG2 of humanized G2.636 antibodies
B1	−	
B2	−	
B3	−	
B4	−	
B5	−	
B12		particularly good expression and activity
B6	−	
B7	−	
